The DeepSol protein solubility set

Experiment: soluble on expression in E. coli; label from the status in PepcDB or PDB records

Sequence	soluble on expression in E. coli
FNDWYVSARANFTYNRNKKLYDDKPTPIWPYQSEAGFAYRQQRGLIALGLFESEEDIANSPKQNFGNVRPGDIKYKDINGDNVIDAYDKVAIGYTDVPEINYGFGISLGWKGFDASLFMQGVGNVTRIIGGDALYGASDNIERLGQIYADVAEKRWTTSNPNPNATYPRLSMSKVENNLQPSTYWQRNMSFLRLKNVEIGYTLPKHIYKRLGMSSIRVYAQGVNLLTFSKFKLWDPELDSNYGNIYPQMRTITLGLNLNF	not soluble
FQDVTNTPVEGMKPYTALQLEGRDIYIREGCVGCHSQMIRPFRAETERYGHYSVAGESVWDHPFLWGSKRTGPDLARVGSRYSDDWHRAHLFNPRNVVPESKMPAYPWLVENKLDGKDIEKKLEVMRTLGVPYTDEDIKGAKDSLKGKTEMDAVVAYLQVLGTSIK	not soluble
FRFCFKQMNKSQHELVLGWIHQPHINEWLHGDGLSNTIKDLHEFLNDGKPWATHWIAYDNEIPFAYLITSEIEKSEEYPDGAVTLDLFICRLDYIGKGLSVQMIHEFILSQFSDTKIVLINPEISNERAVHVYKKAGFEIIGEFIASWHPVPHYKMKLCI	not soluble
FTGFFIGPMAEVTIPLVGLGVDGALLFAQRGVKVGDESIRQNGLDIPINLKYTIGLGSALGIYVAAGPDFYFNFSGDKNYGELGRLNKKNAQVGINVGAGVKLLRHLQVGANYNIPLNKTAEWKEADFSYKTKMWQISAAYIF	not soluble
FTNPGQIVGRIDRDSGMTSTAPAMPDGDWQAYGRTEFGDRYSPLKQITPANVGQLEEAWRIRTGDLPTADDPLELTNENTPLKVNGMLYACTAHSKVLALDPDTGAEIWRFDPQIQSPVGFKGFAHMTCRGVSYYDEEQYARSDVGAPPAALSEAGKAVAASCPRRLFLPTADARLIAINADNGKVCEDFGVKGAVDLTAGIGPFTPGGYYSTSPAAVTRNLVIIGGHVTDNESTNEPSGVIRAFDVHDGKLVWNWDSGNPDETEPLAPGKFYTRNSPNMWSLASVDEKLGQVYLPLGNQMPDQWGGNRTPGAEKFSAGLVALDLNTGKLRWNYQFTHHDLWDMDVGSQPTLLDLKTADGVKPALIAPTKQGSLYVLDRRDGTPIVPIREVPAPQGAVEGDHTAPTQARSDLNLLRPPLTERDMWGSSPFDQMLCRIQFRSLRYEGQYTPPSEQGSLIYPGNVGVFNWGGVSVDPVRQILFTSPNYMAFVSQMVPRDKVPSGSKREGETSGVQPNTGAPYAVIMHPFMSPIGLPCQAPSWGDVAGIDLTTAKVVWQHKNGTSRDNTPVPIGLTVGVPSMGGSITTAGGVAFLSGTLDQYLRAYDVKDGKQLWQARLPAGGQATPMSYTGKDGRQYVLIVAGGHGSFGTRMGDYIIAYALPR	not soluble
FYRNHYKITYKRRLSDLFREFYLTSSRTKWQLCITLGVALVMLVSRELGLPRPMWAGFAAMSVMQPFAEDLKQRVKHRLPGTIAGGLLFLLLCRVLPE	not soluble
GAAAGVAAWLPFARAAAIGWMPVANCPMPLAPADKNKRQDELIVLNVSGRRFQTWRTTLERYPDTLLGSTEKEFFFNEDTKEYFFDRDPEVFRCVLNFYRTGKLHYPRYECISAYDDELAFYGILPEIIGDCCYEEYKDRKREN	soluble
GADEEESTPCDNVETDQQTFACAAFNKQVAERELQSAYDELIERMRDQFGDEAGLMSRIEAAEKVWSQLRDADCKVETHAEQPGSNAYQIAWNSCIAQRSDERAEYLRSLGSQNSDEPAPED	soluble
GAHMSVIKPEMKIKLCMRGTVNGHNFVIEGEGKGNPYEGTQILDLNVTEGAPLPFAYDILTTVFQYGNRAFTKYPADIQDYFKQTFPEGYHWERSMTYEDQGICTATSNISMRGDCFFYDIRFDGTNFPPNGPVMQKKTLKWEPSTEKMYVEDGVLKGDVNMRLLLEGGGHYRCDFKTTYKAKKEVRLPDAHKIDHRIEILKHDKDYNKVKLYENAVARYSMLPSQAK	soluble
GAKSIYEFQVNAADGKPYDLSQHKGHPLLIYNVASRCGYTKGGYETATTLYNKYKGQGFTVLAFPCNQFAGQEPGTALEVKEFACTRFKADFPIMAKIDVNGSKAHPLYEFMKATIPGLFGTKAIKWNFTSFLIDRHGVPVERFSPGASVEDIEKKLLPLLGGARI	soluble
GALPDPVKPKAPKAVNPFHLGMAGYTFVNFDLDTTLKTLERLDIHYLCIKDFHLPLNSTDEQIRAFHDKCAAHKVTGYAVGPIYMKSEEEIDRAFDYAKRVGVKLIVGVPNYELLPYVDKKVKEYDFHYAIHLHGPDIKTYPDATDVWVHTKDLDPRIGMCLDVGHDLRNGCDPVADLKKYHTRVFDMHIKDVTDSSKAGVGIEIGRGKIDFPALIRMMREVNYTGMCSLEYEKDMKDPFLGIAESIGYFKAVSDLT	soluble
GAMDISPTNHHEMLQNLQTVVNELYREDVDYVADKILTRQTVMQESIARFHEIIAIDKNHLRAVEQAIEQTMHSLNAQIDVLTANRAKVQQFSSTSHVDDEDVNSIAVAKTDGLNQLYNLVAQDYALTDTIECLSRMLHRGTIPLDTFVKQGRELARQQFLVRWHIQRITSPLS	soluble
GAMGNICNSGGVSRTYSPPTSPVYGSGVSSPSRFVGQYTLTSIHQLSSEERENFLDAHDPMRVYDLNSETSVYRTTQREYVRNGYATGNPNSGAIIALHEELQESPYAQHIGARPDQADAYRPRTAHVSSLNTPSLNVMAGQGALSALRGYAGSDHVTTEMRLGDFLDQGGKVYSDTSAMSAGGDSVEALIVTLPKGRKVPVNILD	soluble
GAMGSSLDNPTPFPNLGPSENPLKRLLVPGEEWEFEVTAFYRGRQVFQQTISCPEGLRLVGSEVGDRTLPGWPVTLPDPGMSLTDRGVMSYVRHVLSCLGGGLALWRAGQWLWAQRLGHCHTYWAVSEELLPNSGHGPDGEVPKDKEGGVFDLGPFIVDLITFTEGSGRSPRYALWFCVGESWPQDQPWTKRLVMVKVVPTCLRALVEMARVGGASSLENTVDLHISNSHPLSLTSDQYKAYLQDLVEGMDFQGPGES	soluble
GAMIRSRQPLLDALGVDLPDELLSLALTHRSYAYENGGLPTNERLEFLGDAVLGLTITDALFHRHPDRSEGDLAKLRASVVNTQALADVARRLCAEGLGVHVLLGRGEANTGGADKSSILADGMESLLGAIYLQHGMEKAREVILRLFGPLLDAAPTLGAGLDWKTSLQELTAARGLGAPSYLVTSTGPDHDKEFTAVVVVMDSEYGSGVGRSKKEAEQKAAAAAWKALEVLDNAMPGKTSA	soluble
GAMPPIFLPPPNYLFVRDVWKSNLYSEFAVIRQLVSQYNHVSISTEFVGTLARPIGTFRSKVDYHYQTMRANVDFLNPIQLGLSLSDANGNKPDNGPSTWQFNFEFDPKKEIMSTESLELLRKSGINFEKHENLGIDVFEFSQLLMDSGLMMDDSVTWITYHAAYDLGFLINILMNDSMPNNKEDFEWWVHQYMPNFYDLNLVYKIIQEFKNPQLQQSSQQQQQQQYSLTTLADELGLPRFSIFTTTGGQSLLMLLSFCQLSKLSMHKFPNGTDFAKYQGVIYGIDGDQ	soluble
GAMSYSLYGTTLEQQYNKPLSDLLIRCINCQKPLSPEEKQRHLDKKQRFHNIRGRWTGRCMSCSRSSRTRRETQL	soluble
GATDSATAAPAAAATTQVQKEAADVLQVAVQGANAMRDIQFARLALFHGQPDSAKKLTDDAAALLAADDASWAKFVKTDAKAKMIADRYVIINASIALSEDYVATPEKESAIQSANEKLAKGDQKGAIDTLRLAGIGVIENQYLMPLNQTRKAVAQSQELLKAGKYYEANLVLKGAEEGIVVDSEMLVAGN	soluble
GATITHQEKLLTVDTTAHPFLKALGGHEGTDIFPLFMDPYNGLMVMRASFAPGLTLPLHFHTGTVHMYTISGCWYYTEYPGQKQTAGCYLYEPGGSIHQFNTPRDNEGQTEVIFMLSGCNVNFTQDGTYLGLSDAGVIKNWVDRAIREQDNGLRYIAAAVPTYAA	soluble
GAVFEFDNLAPMLATHGTVAGLKASQWAFEGKWDGYRLLVEADHGAVRLRSRSGRDVTAEYPQLRALAEDLADHHVVLDGEAVVLDSSGVPSFSQMQNRGRDTRVEFWAFDLLYLDGRALLGTRYQDRRKLLETLANATSLTVPELLPGDGAQAFACSRKHGWEGVIAKRRDSRYQPGRRCASWVKDKHWNTQEVVIGGWRAGEGGRSSGVGSLLMGIPGPGGLQFAGRVGTGLSERELANLKEMLAPLHTDESPFDVPLPARDAKGITYVKPALVAEVRYSEWTPEGRLRQSSWRGLRPDKKPSEVVRE	soluble
GDALTSPQQTKLYLSSVLRDRQREAFYILFLDNQHRVIRDEILFEGTIDAASVYPREVVKRALHHNAAAVILAHNHPSGVAEPSQADRRITDRLRDALGLVEIRVLDHFVVGDGEVVSFAERGWI	soluble
GDSLTAQEALATLALSGDDDGPRQTRSYQVMNGIAVLPVSGTLVSRTRALQPYSGMTGYNGIIARLQQAASDPMVDGILLDMDTPGGMVAGAFDCADIIARVRDIKPVWALANDMNCSAGQLLASAASRRLVTQTARTGSIGVMMAHSNYGAALEKQGVEITLIYSGSHKVDGNPYSHLPDDVRETLQSRMDATRQMFAQKVSAYTGLSVQAVLDTEAAVYSGQEAIDAGLAD	not soluble
GDSSSSGNSFVGLRVVAKWSSNGYFYSGKITRDVGAGKYKLLFDDGYECDVLGKDILLCDPIPLDTEVTALSEDEYFSAGVVKGHRKESGELYYSIEKEGQRKWYKRMAVILSLEQGNRLREQYGLGPYEAVTPLTKAADISLDNLVEGKRKRRSN	soluble
GDTRPRFLQQDKYECHFFNGTERVRFLHRDIYNQEEDLRFDSDVGEYRAVTELGRPDAEYWNSQKDFLEDRRAAVDTYCRHNYGVGESFTVQRRVEPKVTVYPARTQTLQHHNLLVCSVNGFYPGSIEVRWFRNSQEEKAGVVSTGLIQNGDWTFQTLVMLETVPRSGEVYTCQVEHPSVTSPLTVEWRAQS	soluble
GEAQERQTDDGIAAFCRHLGELCDLLNAPYDDVNALAHLARAGELQGTNVNLLLHNAFYHWLGERVQLSVAESRDVAPETIAAHAREAALAQIQSGEYVSQFVTAVAAHATQNVDGVQGPVAPTKQSLFDLPGHFELLGPDEVDGLLKDLASSDCPVGALEKLVADPHLLEDLCFGPTWPQLCDSLGRLVCLLPPSGGTQAAVTGAGHHQHGHTRAAAAVGGGAGRAAASVPEMPKQQQLLLQALNEVVSAVAASSPPHAAELLDGLAPYLTALALRLSLPLPGAGTGHATPVAPDQLQTRVQAGMAGPGAGAGDGGPGGVAVVGTGAVGLLVAVTARDA	not soluble
